One protein from article PMC4508901 (The Journal of Cell Biology, 2015) can be followed below.

As a reminder, the stoichiometry N is the number of molecules, sites or subunits per partner or assembly.

This data set deals with the molecule itself. As to the kind of experiment: cross-linking.

B1: purified Egd2 (expressed in E. coli) (natural protein, S. cerevisiae, UniProt P38879 1-174, looked up)
chain: MSAIPENANVTVLNKNEKKARELIGKLGLKQIPGIIRVTFRKKDNQIYAIEKPEVFRSAGGNYVVFGEAKVDNFTQKLAAAQQQAQASGIMPSNEDVATKSPEDIQADMQAAAEGSVNAAAEEDDEEGEVDAGDLNKDDIELVVQQTNVSKNQAIKALKAHNGDLVNAIMSLSK
On to B1, for which the “stoichiometry N” value stood at 2.
